From PMC7864079, “Molecular basis for histone H3 “K4me3-K9me3/2” methylation pattern readout by Spindlin1” (The Journal of Biological Chemistry, 2021) come the findings set out here.

pKd: −log10 of the molar value.

The target of this assay is double Tudor domains of JMJD2A. The experiment in a line: ITC; reader domains (BPTF, RAG2, ZCWPW1, SGF29, JMJD2A) titrated with H3 peptides; 25°C; One Set of Binding Sites model. (Isothermal titration calorimetry measures the heat released or taken up as one component is titrated into another.)

One may read the pKd as the negative decadic logarithm of the Kd, by convention in mol/L. A high value points to a small Kd. The substance “H3_(1–20) K4me3 peptide (from UniProt P68431 2-21)” showed a pKd of 6.22.
The substance “H3_(1–20) “K4me3-K9me3” peptide (from UniProt P68431 2-21)” gave a negative logarithm of the Kd (pKd) of 6.05.
